# B1: LINE1-full (parent)
# chain: UACGUAGGUGGUUUUCCCCUGAUAGUGCUAAGGGGGCCUGGAAGUUUGGACUGGGCAGAGCUCAACACAGCGUGGCAAAGUGGCUGUGGCUAGACUGCCUCUCUGGAUUCCUCGUCACUCAGCAGGGCAUCUCUGAGAGAAAUGCC
# Variants of: B1
# Experiment: self-cleavage, relative activity (ratio to wild type); higher = more cleavage; in vitro, sequencing; the parent is a self-cleaving ribozyme
row,Variant,self-cleavage
1,UACGUAGGUGGUUUUCCCCUGAUAGUGCUAAGGGGGCCUGGAAGUUUGGACUGGGCAGAGCUCAACACAGCGUGGCAAAGUGGCUGUGGCUAGACUACCUCUCUGGAUUCCUCGUCACUCAGCAGGGCAUCUCUGUGAGAAAUGCC,0.11
2,UACGUAGGUGGUUUUCCCCUGAUAGUGCUAAGGGGGCCUGGAAGUUUGGACUGGGCAGAGCUCAACACAGCGUGGCAAAGUGGCUGUGGCUAGACUACCUCUCUGGAUUCCUCGUCACUCAGCAGGGCAUCUCUGAGGGAAAUGCC,0.14
3,UACGUAGGUGGUUUUCCCCUGAUAGUGCUAAGGGGGCCUGGAAGUUUGGACUGGGCAGAGCUCAACACAGCGUGGCAAAGUGGCUGUGGCUAGACUACCUCUCUGGAUUCCUCGUCACUCAGCAGGGCAUCUCUGAGAGUAAUGCC,0.02
4,UACGUAGGUGGUUUUCCCCUGAUAGUGCUAAGGGGGCCUGGAAGUUUGGACUGGGCAGAGCUCAACACAGCGUGGCAAAGUGGCUGUGGCUAGACUACCUCUCUGGAUUCCUCGUCACUCAGCAGGGCAUCUCUGAGAGAGAUGCC,0.12
5,UACGUAGGUGGUUUUCCCCUGAUAGUGCUAAGGGGGCCUGGAAGUUUGGACUGGGCAGAGCUCAACACAGCGUGGCAAAGUGGCUGUGGCUAGACUACCUCUCUGGAUUCCUCAUCACUCAGCAGGGCAUCUCUGAGAGAAAUGCC,0.15
6,UACGUAGGUGGUUUUCCCCUGAUAGUGCUAAGGGGGCCUGGAAGUUUGGACUGGGCAGAGCUCAACACAGCGUGGCAAAGUGGCUGUGGCUAGACUACCUCUCUGGAUUCCUCGUCACUCAGCAGAGCAUCUCUGAGAGAAAUGCC,0.09
7,UACGUAGGUGGUUUUCCCCUGAUAGUGCUAAGGGGGCCUGGAAGUUUGGACUGGGCAGAGCUCAACACAGCGUGGCAAAGUGGCUGUGGCUAGACUACCUCUCUGGAUUCCUCGUCACUCAGCAGUGCAUCUCUGAGAGAAAUGCC,0.07
8,UACGUAGGUGGUUUUCCCCUGAUAGUGCUAAGGGGGCCUGGAAGUUUGGACUGGGCAGAGCUCAACACAGCGUGGCAAAGUGGCUGUGGCUAGACUACCUCUCAGGAUUCCUCGUCACUCAGCAGGGCAUCUCUGAGAGAAAUGCC,0.06
9,UACGUAGGUGGUUUUCCCCUGAUAGUGCUAAGGGGGCCUGGAAGUUUGGACUGGGCAGAGCUCAACACAGCGUGGCAAAGUGGCUGUGGCUAGACUACCUCUCUGGACUCCUCGUCACUCAGCAGGGCAUCUCUGAGAGAAAUGCC,0.17
10,UACGUAGGUGGUUUUCCCCUGAUAGUGCUAAGGGGGCCUGGAAGUUUGGACUGGGCAGAGCUCAACACAGCGUGGCAAAGUGGCUGUGGCUAGACUACCUCUCUGGAUUCCUCGCCACUCAGCAGGGCAUCUCUGAGAGAAAUGCC,0.3
11,UACGUAGGUGGUUUUCCCCUGAUAGUGCUAAGGGGGCCUGGAAGUUUGGACUGGGCAGAGCUCAACACAGCGUGGCAAAGUGGCUGUGGCUAGACUACCUCUCUGGAUUCCUCGUCACUCAGCAGGGCACCUCUGAGAGAAAUGCC,0.19
12,UACGUAGGUGGUUUUCCCCUGAUAGUGCUAAGGGGGCCUGGAAGUUUGGACUGGGCAGAGCUCAACACAGCGUGGCAAAGUGGCUGUGGCUAGACUACCUCUCUGGAUUCCUCGUCACUCAGCAGGGCAUCUCCGAGAGAAAUGCC,0.07
13,UACGUAGGUGGUUUUCCCCUGAUAGUGCUAAGGGGGCCUGGAAGUUUGGACUGGGCAGAGCUCAACACAGCGUGGCAAAGUGGCUGUGGCUAGACUCCCUCUCUGGAUUCAUCGUCACUCAGCAGGGCAUCUCUGAGAGAAAUGCC,0.18
14,UACGUAGGUGGUUUUCCCCUGAUAGUGCUAAGGGGGCCUGGAAGUUUGGACUGGGCAGAGCUCAACACAGCGUGGCAAAGUGGCUGUGGCUAGACUCCCUCUCUGUAUUCCUCGUCACUCAGCAGGGCAUCUCUGAGAGAAAUGCC,0.2
15,UACGUAGGUGGUUUUCCCCUGAUAGUGCUAAGGGGGCCUGGAAGUUUGGACUGGGCAGAGCUCAACACAGCGUGGCAAAGUGGCUGUGGCUAGACUUCCUCUCUGGAUUCCUCGUCACUCAGCAGGGCUUCUCUGAGAGAAAUGCC,0.08
16,UACGUAGGUGGUUUUCCCCUGAUAGUGCUAAGGGGGCCUGGAAGUUUGGACUGGGCAGAGCUCAACACAGCGUGGCAAAGUGGCUGUGGCUAGACUUCCUCUCUGGAUUCCUCGUCACUCAGCAGGGCAUCUCUGAGUGAAAUGCC,0.11
17,UACGUAGGUGGUUUUCCCCUGAUAGUGCUAAGGGGGCCUGGAAGUUUGGACUGGGCAGAGCUCAACACAGCGUGGCAAAGUGGCUGUGGCUAGACUUCCUCUCUGGAUUCCUCGUCACUCAGCAGGGCAUCACUGAGAGAAAUGCC,0.03
18,UACGUAGGUGGUUUUCCCCUGAUAGUGCUAAGGGGGCCUGGAAGUUUGGACUGGGCAGAGCUCAACACAGCGUGGCAAAGUGGCUGUGGCUAGACUGACUCUCUGGAUUCCUCGUCACUCAGCAGGGCAUCUCUGAGAGAAAUGCC,0.17
19,UACGUAGGUGGUUUUCCCCUGAUAGUGCUAAGGGGGCCUGGAAGUUUGGACUGGGCAGAGCUCAACACAGCGUGGCAAAGUGGCUGUGGCUAGACUGACUCUCUGGAUUCCUCGUCACUCAGCAGGGCAUCUCUGAGGGAAAUGCC,0.29
20,UACGUAGGUGGUUUUCCCCUGAUAGUGCUAAGGGGGCCUGGAAGUUUGGACUGGGCAGAGCUCAACACAGCGUGGCAAAGUGGCUGUGGCUAGACUGACUCUCUGGACUCCUCGUCACUCAGCAGGGCAUCUCUGAGAGAAAUGCC,0.4

row,Variant,self-cleavage
1,UACGUAGGUGGUUUUCCCCUGAUAGUGCUAAGGGGGCCUGGAAGUUUGGACUGGGCAGAGCUCAACACAGCGUGGCAAAGUGGCUGUGGCUAGACUGACUCUCUGGAUUCCUCGUCACUCAGCAGGGCACCUCUGAGAGAAAUGCC,0.13
2,UACGUAGGUGGUUUUCCCCUGAUAGUGCUAAGGGGGCCUGGAAGUUUGGACUGGGCAGAGCUCAACACAGCGUGGCAAAGUGGCUGUGGCUAGACUGGCUCUCUGGAUUCCUCGUCACUCAGCAGGGCAUCUCUGAGAGAAAUGCC,0.13
3,UACGUAGGUGGUUUUCCCCUGAUAGUGCUAAGGGGGCCUGGAAGUUUGGACUGGGCAGAGCUCAACACAGCGUGGCAAAGUGGCUGUGGCUAGACUGGCUCUCUGGAUUCCUCGUCACUCAGCAAGGCAUCUCUGAGAGAAAUGCC,0.05
4,UACGUAGGUGGUUUUCCCCUGAUAGUGCUAAGGGGGCCUGGAAGUUUGGACUGGGCAGAGCUCAACACAGCGUGGCAAAGUGGCUGUGGCUAGACUGGCUCCCUGGAUUCCUCGUCACUCAGCAGGGCAUCUCUGAGAGAAAUGCC,0.14
5,UACGUAGGUGGUUUUCCCCUGAUAGUGCUAAGGGGGCCUGGAAGUUUGGACUGGGCAGAGCUCAACACAGCGUGGCAAAGUGGCUGUGGCUAGACUGUCUCUCUGGAUUCCUCGUCACUCAGCAGGGCAUCUCUGAGAGAAAUGCC,0.4
6,UACGUAGGUGGUUUUCCCCUGAUAGUGCUAAGGGGGCCUGGAAGUUUGGACUGGGCAGAGCUCAACACAGCGUGGCAAAGUGGCUGUGGCUAGACUGUCUCUCUGGGUUCCUCGUCACUCAGCAGGGCAUCUCUGAGAGAAAUGCC,0.46
7,UACGUAGGUGGUUUUCCCCUGAUAGUGCUAAGGGGGCCUGGAAGUUUGGACUGGGCAGAGCUCAACACAGCGUGGCAAAGUGGCUGUGGCUAGACUGUCUCUCUGGAUUCCUCGUCACUCAGCAGGGCAUCUCUGAGAGGAAUGCC,0.57
8,UACGUAGGUGGUUUUCCCCUGAUAGUGCUAAGGGGGCCUGGAAGUUUGGACUGGGCAGAGCUCAACACAGCGUGGCAAAGUGGCUGUGGCUAGACUGUCUCUCUGGAUUCCUCGUCACUCAGUAGGGCAUCUCUGAGAGAAAUGCC,0.35
9,UACGUAGGUGGUUUUCCCCUGAUAGUGCUAAGGGGGCCUGGAAGUUUGGACUGGGCAGAGCUCAACACAGCGUGGCAAAGUGGCUGUGGCUAGACUGUCUCCCUGGAUUCCUCGUCACUCAGCAGGGCAUCUCUGAGAGAAAUGCC,0.55
10,UACGUAGGUGGUUUUCCCCUGAUAGUGCUAAGGGGGCCUGGAAGUUUGGACUGGGCAGAGCUCAACACAGCGUGGCAAAGUGGCUGUGGCUAGACUGUCUCUCUGGAUUCCUCGACACUCAGCAGGGCAUCUCUGAGAGAAAUGCC,0.44
11,UACGUAGGUGGUUUUCCCCUGAUAGUGCUAAGGGGGCCUGGAAGUUUGGACUGGGCAGAGCUCAACACAGCGUGGCAAAGUGGCUGUGGCUAGACUGUCUCUCUGGAUUCCUCGUCACUCAGCAGGGCACCUCUGAGAGAAAUGCC,0.5
12,UACGUAGGUGGUUUUCCCCUGAUAGUGCUAAGGGGGCCUGGAAGUUUGGACUGGGCAGAGCUCAACACAGCGUGGCAAAGUGGCUGUGGCUAGACUGCAUCUCUGGAUUCCUCGUCACUCAGCAGGGCAUCUCUGAGAGAAAUGCC,0.4
13,UACGUAGGUGGUUUUCCCCUGAUAGUGCUAAGGGGGCCUGGAAGUUUGGACUGGGCAGAGCUCAACACAGCGUGGCAAAGUGGCUGUGGCUAGACUGCAUCUCUGGGUUCCUCGUCACUCAGCAGGGCAUCUCUGAGAGAAAUGCC,0.61
14,UACGUAGGUGGUUUUCCCCUGAUAGUGCUAAGGGGGCCUGGAAGUUUGGACUGGGCAGAGCUCAACACAGCGUGGCAAAGUGGCUGUGGCUAGACUGCAUCUCUGGAUUCCUCGUCACUCAGCGGGGCAUCUCUGAGAGAAAUGCC,0.21
15,UACGUAGGUGGUUUUCCCCUGAUAGUGCUAAGGGGGCCUGGAAGUUUGGACUGGGCAGAGCUCAACACAGCGUGGCAAAGUGGCUGUGGCUAGACUGCAUCUCUGGAUUCCUCGUCACUCAGCAGGGCAUCUCUGAGGGAAAUGCC,0.88
16,UACGUAGGUGGUUUUCCCCUGAUAGUGCUAAGGGGGCCUGGAAGUUUGGACUGGGCAGAGCUCAACACAGCGUGGCAAAGUGGCUGUGGCUAGACUGCAUCUCUGGAUUCCUUGUCACUCAGCAGGGCAUCUCUGAGAGAAAUGCC,0.27
17,UACGUAGGUGGUUUUCCCCUGAUAGUGCUAAGGGGGCCUGGAAGUUUGGACUGGGCAGAGCUCAACACAGCGUGGCAAAGUGGCUGUGGCUAGACUGCAUCUCUGGAUUCCUCAUCACUCAGCAGGGCAUCUCUGAGAGAAAUGCC,0.44
18,UACGUAGGUGGUUUUCCCCUGAUAGUGCUAAGGGGGCCUGGAAGUUUGGACUGGGCAGAGCUCAACACAGCGUGGCAAAGUGGCUGUGGCUAGACUGCAUCUCUGGAUUCCUCGCCACUCAGCAGGGCAUCUCUGAGAGAAAUGCC,0.84
19,UACGUAGGUGGUUUUCCCCUGAUAGUGCUAAGGGGGCCUGGAAGUUUGGACUGGGCAGAGCUCAACACAGCGUGGCAAAGUGGCUGUGGCUAGACUGCAUCUCUGGAUUCCUCGUCACUCAGCAGGGCAUCUCUGAGAGAAAAGCC,0.84
